In US20260008817A1, “CYCLIC PEPTIDE OR SALT THEREOF, AND USES THEREOF” (FUJIFILM Corporation, priority 2023, published 2026):
Positions of bridges follow the written chain, without caps; N, C: chain ends. Non-standard residues stand in square brackets, D forms with d. No end group written: not given here. COCH2 = acetyl group that carries the bridge; NMeL = CN[C@@H](CC(C)C)C(=O)O; hLeu = CC(C)CC[C@H](N)C(=O)O; hCys = N[C@@H](CCS)C(=O)O; Orn = NCCC[C@H](N)C(=O)O; Dab = NCC[C@H](N)C(=O)O; Dap = NC[C@H](N)C(=O)O

Columns and labels:
[1] = biological target: T1, Recombinant Human FGFR1 alpha (IIIc) Fc Chimera Protein (Homo sapiens, UniProt P11362); assay: SPR binding affinity of chemically synthesized cyclic peptide to immobilized FGFR; conditions: SPR binding amount at 10 nmol/L cyclic peptide, 25° C.; chemically synthesized product
T1 construct: purchased R&D systems 658-FR-050
T1 sequence (P11362 with tags, fused parts or gaps limits assumed): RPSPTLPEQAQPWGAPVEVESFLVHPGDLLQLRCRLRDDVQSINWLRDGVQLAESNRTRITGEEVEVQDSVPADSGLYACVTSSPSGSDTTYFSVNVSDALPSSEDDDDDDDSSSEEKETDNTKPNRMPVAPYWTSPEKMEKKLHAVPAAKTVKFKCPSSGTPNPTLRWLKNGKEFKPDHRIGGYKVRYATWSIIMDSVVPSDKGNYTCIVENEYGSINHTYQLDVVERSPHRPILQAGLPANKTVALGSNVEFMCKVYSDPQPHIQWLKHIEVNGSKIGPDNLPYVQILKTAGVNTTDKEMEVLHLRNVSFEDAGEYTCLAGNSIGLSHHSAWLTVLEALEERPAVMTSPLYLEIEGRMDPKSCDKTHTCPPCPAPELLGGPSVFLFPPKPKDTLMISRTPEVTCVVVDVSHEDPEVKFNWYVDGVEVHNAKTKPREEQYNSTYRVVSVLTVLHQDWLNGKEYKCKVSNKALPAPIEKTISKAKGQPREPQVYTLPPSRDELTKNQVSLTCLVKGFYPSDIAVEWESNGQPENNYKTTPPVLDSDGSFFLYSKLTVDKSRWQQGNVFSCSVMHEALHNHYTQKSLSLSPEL
Procedure: The binding affinity of the cyclic peptide to FGFR was evaluated using a surface plasmon resonance (SPR) method.
The binding affinity of the chemically synthesized cyclic peptide to FGFR was evaluated by the following procedure.
A CM5 sensor chip (Cytiva, 29149603) was set in Biacore-T200 (manufactured by Cytiva) which is a surface plasmon resonance device, and an HBS-EP buffer (Cytiva, BR100826) was added as a running buffer at a flow rate of 10 μL/min to equilibrate the flow channel. Next, 70 μL of a mixed aqueous solution of 0.2 mol/L 1-(3-dimethylaminopropyl)-3-ethylcarbodiimide (EDC) and 0.05 mol/L N-hydroxysuccinimide (NHS) was added to activate the sensor chip. Then, Recombinant Human FGFR1 alpha (IIIc) Fc Chimera Protein CF (R&D systems, 658-FR-050) prepared at 50 nmol/L in an Acetate 4.5 buffer (Cytiva, BR100350) was added thereto to perform immobilization at about 5000 RU. Thereafter, the blocking treatment was performed with an ethanolamine solution. In addition, in another flow channel of the same sensor chip, blocking treatment was performed immediately after activation without immobilizing FGFR.
A cyclic peptide diluted to 10 nmol/L using HBS-EP was added to each flow channel of the FGFR-immobilized sensor chip produced above at 25° C. for 10 minutes, then HBS-EP was allowed to flow as a running buffer for 30 minutes, and the binding of the cyclic peptide to FGFR was measured. Thereafter, a regeneration treatment of removing the bound cyclic peptide was performed by repeating the flow of a regeneration liquid in which sodium chloride powder was dissolved in Glysine 1.5 (Cytiva, BR100354) to a final concentration of 0.15 mol/L for 1 minute in each flow channel twice. The binding amount of the cyclic peptide was evaluated from the difference between the measured value of Biacore-T200 in the flow channel in which FGFR was immobilized and the measured value of Biacore-T200 in the flow channel in which FGFR was not immobilised, in a case where a 10 nmol/L cyclic peptide was allowed to flow.
The binding amount of the cyclic peptide evaluated above was normalized to the binding amount of the cyclic peptide molecules per one molecule of FGFR using the molecular weights of the cyclic peptide and FGFR, and the binding affinity to FGFR was evaluated according to the following evaluation criteria. The evaluation result preferably satisfies the evaluation criteria A, B, or C.
• A: The binding amount is 0.7 molecules of the cyclic peptide/one molecule of FGFR or more. • B: The binding amount is 0.5 molecules of the cyclic peptide/one molecule of FGFR or more and less than 0.7 molecules of cyclic peptide/one molecule of FGFR. • C: The binding amount is 0.1 molecules of cyclic peptide/one molecule of FGFR or more and less than 0.5 molecules of cyclic peptide/one molecule of FGFR. • D: The binding amount is less than 0.1 molecules of the cyclic peptide/one molecule of FGFR.

[2] = Reductive stability of cyclic peptide (DTT treatment, LC); assay type: physicochemical; conditions: residual rate after DTT treatment, room temperature, 1 hour
Procedure: The molecular stability of the cyclic peptide was evaluated by analyzing an aqueous solution of the cyclic peptide treated with a reducing agent by liquid chromatography (LC).
The reducing agent treatment was performed under the following conditions based on the concentration of glutathione contained in the cells. 25 μL of a 0.2 mg/mL cyclic peptide aqueous solution was prepared, 58.8 μL of a 12.6 mmol/L DTT aqueous solution was added to the aqueous solution, and the mixture was incubated at room temperature for 1 hour to obtain an aqueous solution of the cyclic peptide treated with a reducing agent. The DTT aqueous solution was used by diluting a 1 mol/L (+−)-dithiothreitol (DTT) solution (FUJIFILM Wako Pure Chemical Corporation, 044-33871) with water. The total area of all the peaks in LC/MS of the cyclic peptide before the reducing agent treatment was set to 100%, and the proportion of the total area of all the peaks in LC/MS of the aqueous solution of the cyclic peptide treated with the reducing agent was determined to calculate the residual rate of the cyclic peptide, and the molecular stability was evaluated according to the following evaluation criteria. The evaluation result preferably satisfies the evaluation criteria A, B, or C.
• A: The residual rate of cyclic peptide is 90% or more. • B: The residual rate of the cyclic peptide is 70% or more and less than 90% • C: The residual rate of the cyclic peptide is 50% or more and less than 70% • D: The residual rate of the cyclic peptide is less than 50%
The LC used for the evaluation of molecular stability was set to the following conditions. • LC device: Prominence series (pump, column oven, autosampler, detector) (manufactured by Shimadzu Corporation) • Detector: photodiode array detector (SPD-M20A), measurement wavelength of 280 nm • Column: TSKgel ODS-100V, inner diameter of 4.6 mm×length of 150 mm, particle diameter of 5 μm (manufactured by Tosoh Corporation) • Eluent A: solution containing 0.1% trifluoroacetic acid as solute, and solvent is 100% water • Eluent B: solution containing 0.1% trifluoroacetic acid as solute, and solvent is 100% acetonitrile • Flow rate: 1.0 mL/min • Injection amount: 25 μL • Gradient: 20% to 50%: Eluent B (0 to 15 minutes), 100%: Eluent B (15 minutes) • Column temperature: 40° C.

## 327 (A[hCys]VWTFDRHAQEISQALHK(COCH2)VKKK; thioether 2-19) [compound 327]
[1]
  Evaluation result of binding affinity to FGFR: A (The binding amount is 0.7 molecules of the cyclic peptide/one molecule of FGFR or more.)
[2]
  Evaluation result of reductive stability: A (The residual rate of cyclic peptide is 90% or more.)

## 328 (A[hCys]VWTFDRHAQEISQALH[Orn](COCH2)VKKK; thioether 2-19) [compound 328]
[1]
  Evaluation result of binding affinity to FGFR: A (The binding amount is 0.7 molecules of the cyclic peptide/one molecule of FGFR or more.)
[2]
  Evaluation result of reductive stability: A (The residual rate of cyclic peptide is 90% or more.)

## 329 (A[hCys]VWTFDRHAQEISQALH[Dab](COCH2)VKKK; thioether 2-19) [compound 329]
[1]
  Evaluation result of binding affinity to FGFR: B (The binding amount is 0.5 molecules of the cyclic peptide/one molecule of FGFR or more and less than 0.7 molecules of cyclic peptide/one molecule of FGFR.)
[2]
  Evaluation result of reductive stability: A (The residual rate of cyclic peptide is 90% or more.)

## 330 (A[hCys]VWTFDRHAQEISQALH[Dap](COCH2)VKKK; thioether 2-19) [compound 330]
[1]
  Evaluation result of binding affinity to FGFR: A (The binding amount is 0.7 molecules of the cyclic peptide/one molecule of FGFR or more.)
[2]
  Evaluation result of reductive stability: A (The residual rate of cyclic peptide is 90% or more.)

## 331 (AK(COCH2)VWTFDRHAQEISQALH[hCys]VKKK; thioether 2-19) [compound 331]
[1]
  Evaluation result of binding affinity to FGFR: B (The binding amount is 0.5 molecules of the cyclic peptide/one molecule of FGFR or more and less than 0.7 molecules of cyclic peptide/one molecule of FGFR.)
[2]
  Evaluation result of reductive stability: A (The residual rate of cyclic peptide is 90% or more.)

## 332 (AXVWTFDRHAQEISQALHXVKKK; not fully specified; Description of Artificial Sequence: Cyclic peptide) [compound 332]
[1]
  Evaluation result of binding affinity to FGFR: A (The binding amount is 0.7 molecules of the cyclic peptide/one molecule of FGFR or more.)
[2]
  Evaluation result of reductive stability: A (The residual rate of cyclic peptide is 90% or more.)

## 333 (AXVWTFDRHAQEISQALHXVKKK; not fully specified; Description of Artificial Sequence: Cyclic peptide) [compound 333]
[1]
  Evaluation result of binding affinity to FGFR: A (The binding amount is 0.7 molecules of the cyclic peptide/one molecule of FGFR or more.)
[2]
  Evaluation result of reductive stability: A (The residual rate of cyclic peptide is 90% or more.)

## 334 (AXVWTFDRHAQEISQALHXVKKK; Description of Artificial Sequence: Cyclic peptide) [compound 334]
[1]
  Evaluation result of binding affinity to FGFR: A (The binding amount is 0.7 molecules of the cyclic peptide/one molecule of FGFR or more.)
[2]
  Evaluation result of reductive stability: A (The residual rate of cyclic peptide is 90% or more.)

## 336 (ACVWTFDRHAQEISQALHCVKKK; disulfide 2-19 (inferred)) [compound 336]
[1]
  Evaluation result of binding affinity to FGFR: D (The binding amount is less than 0.1 molecules of the cyclic peptide/one molecule of FGFR.)
[2]
  Evaluation result of reductive stability: D (The residual rate of the cyclic peptide is less than 50%)

## 337 (F[Orn](COCH2)VYTFDAHAHSLDAALN[hCys]IKKK; thioether 2-19) [compound 337]
[1]
  Evaluation result of binding affinity to FGFR: C (The binding amount is 0.1 molecules of cyclic peptide/one molecule of FGFR or more and less than 0.5 molecules of cyclic peptide/one molecule of FGFR.)
[2]
  Evaluation result of reductive stability: B (The residual rate of the cyclic peptide is 70% or more and less than 90%)

## 338 (FXVYTFDAHAHSLDAALNXIKKK; Description of Artificial Sequence: Cyclic peptide) [compound 338]
[1]
  Evaluation result of binding affinity to FGFR: C (The binding amount is 0.1 molecules of cyclic peptide/one molecule of FGFR or more and less than 0.5 molecules of cyclic peptide/one molecule of FGFR.)
[2]
  Evaluation result of reductive stability: A (The residual rate of cyclic peptide is 90% or more.)

## 339 (F[Orn](COCH2)VYTFDAHAHS[NMeL]DAALN[hCys]IKKK; thioether 2-19) [compound 339]
[1]
  Evaluation result of binding affinity to FGFR: C (The binding amount is 0.1 molecules of cyclic peptide/one molecule of FGFR or more and less than 0.5 molecules of cyclic peptide/one molecule of FGFR.)
[2]
  Evaluation result of reductive stability: B (The residual rate of the cyclic peptide is 70% or more and less than 90%)

## 340 (F[Orn](COCH2)VYTFDAHAHS[hLeu]DAALN[hCys]IKKK; thioether 2-19) [compound 340]
[1]
  Evaluation result of binding affinity to FGFR: B (The binding amount is 0.5 molecules of the cyclic peptide/one molecule of FGFR or more and less than 0.7 molecules of cyclic peptide/one molecule of FGFR.)
[2]
  Evaluation result of reductive stability: B (The residual rate of the cyclic peptide is 70% or more and less than 90%)

## 341 ([Orn](COCH2)VYTFDAHAHSLDAALN[hCys]IKKK; thioether 1-18) [compound 341]
[1]
  Evaluation result of binding affinity to FGFR: C (The binding amount is 0.1 molecules of cyclic peptide/one molecule of FGFR or more and less than 0.5 molecules of cyclic peptide/one molecule of FGFR.)
[2]
  Evaluation result of reductive stability: B (The residual rate of the cyclic peptide is 70% or more and less than 90%)

## 342 (F[Orn](COCH2)VYTFDAHAHSLDAALN[hCys]KKK; thioether 2-19) [compound 342]
[1]
  Evaluation result of binding affinity to FGFR: C (The binding amount is 0.1 molecules of cyclic peptide/one molecule of FGFR or more and less than 0.5 molecules of cyclic peptide/one molecule of FGFR.)
[2]
  Evaluation result of reductive stability: B (The residual rate of the cyclic peptide is 70% or more and less than 90%)
